According to US20150056209A1, “PEPTIDE MIMOTOPES TO OXIDATION SPECIFIC EPITOPES” (The Regents of the University of California, priority 2012, published 2015):
Bridges are numbered along the chain shown (N, C = ends). Where no end group is shown, it is not given here.

target: control isotype anti-KLH IgM Ab (C48-6; BD Bioscience-Pharmingen); assay: phage ELISA, coated control IgM

Binder | OD (binding of phages to control IgM)
ACNNSNMPLCGGGS (peptide, not shown: large carriers, disulfide 2-10; also: C-terminus fused to phage pIII) [phage clone Cb10] | 0.2 OD
DYTNSVSMRYLSGGGS (peptide, not shown: large carriers) [phage clone M36] | 0.01 OD
ACKNSXQPLCGGGS (peptide, not shown: large carriers, disulfide 2-10; not fully specified; X: residue not identified in the source) [phage clone Ca4] | 0.1 OD
EVMNNWTLASIMGGGS (peptide, not shown: large carriers) [phage clone M30] | 0.03 OD
ACNNSKMRLCGGGS (peptide, not shown: large carriers, disulfide 2-10; also: C-terminus fused to phage pIII) [phage clone Ca2] | 0.2 OD
TAVTNSMMERLWGGGS (peptide, not shown: large carriers) [phage clone M8] | 0.04 OD
ASISNLTLSRFMGGGS (peptide, not shown: large carriers) [phage clone M15] | 0.04 OD
QNMNNWTLASIMGGGS (peptide, not shown: large carriers) [phage clone A31] | 0.08 OD
GWGNKTPSQDVHGGGS (peptide, not shown: large carriers) [phage clone A39] | 0.05 OD
ADPFSPTNRIPLGGGS (peptide, not shown: large carriers) [phage clone M7] | 0.03 OD
ACNNQNMPLCGGGS (peptide, not shown: large carriers, disulfide 2-10; also: C-terminus fused to phage pIII) [phage clone Cb9] | 0.01 OD
ACNNWKMPLCGGGS (peptide, not shown: large carriers, disulfide 2-10; also: C-terminus fused to phage pIII) [phage clone Cb4] | 0.1 OD
ACNNSHMPLCGGGS (peptide, not shown: large carriers, disulfide 2-10; not fully specified) [phage clones Ca9, Cb3, Ca8, Ca10] | 0.2 OD
HRMTNNAMDVFMGGGS (peptide, not shown: large carriers) [phage clones M6, G10] | 0.03 OD
ESWTNSWAHYFGGGGS (peptide, not shown: large carriers) [phage clones A36, B41, M35] | 0.03 OD
ACNNSXMPLCGGGS (peptide, not shown: large carriers, disulfide 2-10; not fully specified; X: residue not identified in the source) [phage clone Ca6] | 0 OD

Binder | OD (binding of phages to control IgM)
ACDWAPHFTCGGGS (peptide, not shown: large carriers, disulfide 2-10; also: C-terminus fused to phage pIII) [phage clone Cb2] | 0.2 OD
ACNNRNMPLCGGGS (peptide, not shown: large carriers, disulfide 2-10; also: C-terminus fused to phage pIII) [phage clones Ca59, Cb1] | 0.1 OD
ESWTNSWAMYFGGGGS (peptide, not shown: large carriers) [phage clone M2] | 0.03 OD
HSLSNIQMATLAGGGS (peptide, not shown: large carriers) [phage clones M10, G8] | 0.03 OD
HSLTNTQMTQLSGGGS (peptide, not shown: large carriers) [phage clone M31] | 0.03 OD
ACQNSHMPLCGGGS (peptide, not shown: large carriers, disulfide 2-10; also: C-terminus fused to phage pIII) [phage clone Ca3] | 0.1 OD
HQLSNKDEQTPQGGGS (peptide, not shown: large carriers) [phage clone A33] | 0.05 OD
HRMTNAMHHFMGGGGS (peptide, not shown: large carriers) [phage clone A38] | 0.21 OD
HRLTNSEQAALPGGGS (peptide, not shown: large carriers) [phage clones M3, M5] | 0.03 OD
HSWSNYWGHQHAGGGS (peptide, not shown: large carriers) [phage clone A32] | 0.02 OD
NSRTNNSQWTFQGGGS (peptide, not shown: large carriers) [phage clone A34] | 0.11 OD
HRISNYAMELHSGGGS (peptide, not shown: large carriers) [phage clone G4] | 0.04 OD
QSYTNDDVLRISGGGS (peptide, not shown: large carriers) [phage clone M19] | 0.03 OD
ACNNYNMPLCGGGS (peptide, not shown: large carriers, disulfide 2-10; also: C-terminus fused to phage pIII) [phage clone Cb589] | 0.1 OD
NSWTNASLSTFHGGGS (peptide, not shown: large carriers) [phage clone A40] | 0.04 OD
ACNNWNMPLCGGGS (peptide, not shown: large carriers, disulfide 2-10; also: C-terminus fused to phage pIII) [phage clones Ca1, Ca7] | 0.1 OD

target: LRO4; assay: competitive phage ELISA, coated LRO4; competitor MDA-LDL 50 µg/mL

Binder | B/Bo (inhibition of binding to LR04)
ACNNSNMPLCGGGS (peptide, not shown: large carriers, disulfide 2-10; also: C-terminus fused to phage pIII) [phage clone Cb10] | 0.02 B/Bo
DYTNSVSMRYLSGGGS (peptide, not shown: large carriers) [phage clone M36] | 0.07 B/Bo
ACKNSXQPLCGGGS (peptide, not shown: large carriers, disulfide 2-10; not fully specified; X: residue not identified in the source) [phage clone Ca4] | 0.13 B/Bo
EVMNNWTLASIMGGGS (peptide, not shown: large carriers) [phage clone M30] | 0.06 B/Bo
ACNNSKMRLCGGGS (peptide, not shown: large carriers, disulfide 2-10; also: C-terminus fused to phage pIII) [phage clone Ca2] | 0.12 B/Bo
TAVTNSMMERLWGGGS (peptide, not shown: large carriers) [phage clone M8] | 0.2 B/Bo
ASISNLTLSRFMGGGS (peptide, not shown: large carriers) [phage clone M15] | 0.15 B/Bo
QNMNNWTLASIMGGGS (peptide, not shown: large carriers) [phage clone A31] | 0.25 B/Bo
GWGNKTPSQDVHGGGS (peptide, not shown: large carriers) [phage clone A39] | 0.19 B/Bo
ADPFSPTNRIPLGGGS (peptide, not shown: large carriers) [phage clone M7] | 0.1 B/Bo
ACNNQNMPLCGGGS (peptide, not shown: large carriers, disulfide 2-10; also: C-terminus fused to phage pIII) [phage clone Cb9] | 0.02 B/Bo
ACNNWKMPLCGGGS (peptide, not shown: large carriers, disulfide 2-10; also: C-terminus fused to phage pIII) [phage clone Cb4] | 0.02 B/Bo
ACNNSHMPLCGGGS (peptide, not shown: large carriers, disulfide 2-10; not fully specified) [phage clones Ca9, Cb3, Ca8, Ca10] | 0.04 B/Bo
HRMTNNAMDVFMGGGS (peptide, not shown: large carriers) [phage clones M6, G10] | 0.2 B/Bo
ESWTNSWAHYFGGGGS (peptide, not shown: large carriers) [phage clones A36, B41, M35] | 0.14 B/Bo
ACNNSXMPLCGGGS (peptide, not shown: large carriers, disulfide 2-10; not fully specified; X: residue not identified in the source) [phage clone Ca6] | 0.04 B/Bo

Binder | B/Bo (inhibition of binding to LR04)
ACDWAPHFTCGGGS (peptide, not shown: large carriers, disulfide 2-10; also: C-terminus fused to phage pIII) [phage clone Cb2] | 0.03 B/Bo
ACNNRNMPLCGGGS (peptide, not shown: large carriers, disulfide 2-10; also: C-terminus fused to phage pIII) [phage clones Ca59, Cb1] | 0.06 B/Bo
ESWTNSWAMYFGGGGS (peptide, not shown: large carriers) [phage clone M2] | 0.2 B/Bo
HSLSNIQMATLAGGGS (peptide, not shown: large carriers) [phage clones M10, G8] | 0.1 B/Bo
HSLTNTQMTQLSGGGS (peptide, not shown: large carriers) [phage clone M31] | 0.4 B/Bo
ACQNSHMPLCGGGS (peptide, not shown: large carriers, disulfide 2-10; also: C-terminus fused to phage pIII) [phage clone Ca3] | 0.04 B/Bo
HQLSNKDEQTPQGGGS (peptide, not shown: large carriers) [phage clone A33] | 0.14 B/Bo
HRMTNAMHHFMGGGGS (peptide, not shown: large carriers) [phage clone A38] | 0.1 B/Bo
HRLTNSEQAALPGGGS (peptide, not shown: large carriers) [phage clones M3, M5] | 0.1 B/Bo
HSWSNYWGHQHAGGGS (peptide, not shown: large carriers) [phage clone A32] | 0.18 B/Bo
NSRTNNSQWTFQGGGS (peptide, not shown: large carriers) [phage clone A34] | 0.11 B/Bo
HRISNYAMELHSGGGS (peptide, not shown: large carriers) [phage clone G4] | 0.1 B/Bo
QSYTNDDVLRISGGGS (peptide, not shown: large carriers) [phage clone M19] | 0.25 B/Bo
ACNNYNMPLCGGGS (peptide, not shown: large carriers, disulfide 2-10; also: C-terminus fused to phage pIII) [phage clone Cb589] | 0.03 B/Bo
NSWTNASLSTFHGGGS (peptide, not shown: large carriers) [phage clone A40] | 0.1 B/Bo
ACNNWNMPLCGGGS (peptide, not shown: large carriers, disulfide 2-10; also: C-terminus fused to phage pIII) [phage clones Ca1, Ca7] | 0.04 B/Bo

target: LRO4; assay: phage ELISA, coated LRO4

Binder | OD (binding of phages to LR04)
ACNNSNMPLCGGGS (peptide, not shown: large carriers, disulfide 2-10; also: C-terminus fused to phage pIII) [phage clone Cb10] | 0.6 OD
DYTNSVSMRYLSGGGS (peptide, not shown: large carriers) [phage clone M36] | 1.47 OD
ACKNSXQPLCGGGS (peptide, not shown: large carriers, disulfide 2-10; not fully specified; X: residue not identified in the source) [phage clone Ca4] | 0.9 OD
EVMNNWTLASIMGGGS (peptide, not shown: large carriers) [phage clone M30] | 1.04 OD
ACNNSKMRLCGGGS (peptide, not shown: large carriers, disulfide 2-10; also: C-terminus fused to phage pIII) [phage clone Ca2] | 0.8 OD
TAVTNSMMERLWGGGS (peptide, not shown: large carriers) [phage clone M8] | 1.57 OD
ASISNLTLSRFMGGGS (peptide, not shown: large carriers) [phage clone M15] | 1.34 OD
QNMNNWTLASIMGGGS (peptide, not shown: large carriers) [phage clone A31] | 0.85 OD
GWGNKTPSQDVHGGGS (peptide, not shown: large carriers) [phage clone A39] | 1.19 OD
ADPFSPTNRIPLGGGS (peptide, not shown: large carriers) [phage clone M7] | 1.37 OD
ACNNQNMPLCGGGS (peptide, not shown: large carriers, disulfide 2-10; also: C-terminus fused to phage pIII) [phage clone Cb9] | 0.7 OD
ACNNWKMPLCGGGS (peptide, not shown: large carriers, disulfide 2-10; also: C-terminus fused to phage pIII) [phage clone Cb4] | 0.6 OD
ACNNSHMPLCGGGS (peptide, not shown: large carriers, disulfide 2-10; not fully specified) [phage clones Ca9, Cb3, Ca8, Ca10] | 0.9 OD
HRMTNNAMDVFMGGGS (peptide, not shown: large carriers) [phage clones M6, G10] | 1.56 OD
ESWTNSWAHYFGGGGS (peptide, not shown: large carriers) [phage clones A36, B41, M35] | 1.16 OD
ACNNSXMPLCGGGS (peptide, not shown: large carriers, disulfide 2-10; not fully specified; X: residue not identified in the source) [phage clone Ca6] | 0.7 OD

Binder | OD (binding of phages to LR04)
ACDWAPHFTCGGGS (peptide, not shown: large carriers, disulfide 2-10; also: C-terminus fused to phage pIII) [phage clone Cb2] | 1 OD
ACNNRNMPLCGGGS (peptide, not shown: large carriers, disulfide 2-10; also: C-terminus fused to phage pIII) [phage clones Ca59, Cb1] | 0.8 OD
ESWTNSWAMYFGGGGS (peptide, not shown: large carriers) [phage clone M2] | 1.17 OD
HSLSNIQMATLAGGGS (peptide, not shown: large carriers) [phage clones M10, G8] | 1.16 OD
HSLTNTQMTQLSGGGS (peptide, not shown: large carriers) [phage clone M31] | 1.35 OD
ACQNSHMPLCGGGS (peptide, not shown: large carriers, disulfide 2-10; also: C-terminus fused to phage pIII) [phage clone Ca3] | 0.5 OD
HQLSNKDEQTPQGGGS (peptide, not shown: large carriers) [phage clone A33] | 0.63 OD
HRMTNAMHHFMGGGGS (peptide, not shown: large carriers) [phage clone A38] | 0.64 OD
HRLTNSEQAALPGGGS (peptide, not shown: large carriers) [phage clones M3, M5] | 1.56 OD
HSWSNYWGHQHAGGGS (peptide, not shown: large carriers) [phage clone A32] | 0.98 OD
NSRTNNSQWTFQGGGS (peptide, not shown: large carriers) [phage clone A34] | 0.82 OD
HRISNYAMELHSGGGS (peptide, not shown: large carriers) [phage clone G4] | 1.45 OD
QSYTNDDVLRISGGGS (peptide, not shown: large carriers) [phage clone M19] | 1.67 OD
ACNNYNMPLCGGGS (peptide, not shown: large carriers, disulfide 2-10; also: C-terminus fused to phage pIII) [phage clone Cb589] | 0.8 OD
NSWTNASLSTFHGGGS (peptide, not shown: large carriers) [phage clone A40] | 0.89 OD
ACNNWNMPLCGGGS (peptide, not shown: large carriers, disulfide 2-10; also: C-terminus fused to phage pIII) [phage clones Ca1, Ca7] | 0.8 OD
